Patent publication US20160031942A1 (LONDON HEALTH SCIENCES CENTRE RESEARCH, published 2016)
Ends that are not written are not given here.

T1: Recombinant protein RHAMM-CT (truncated RHAMM, carboxy terminus containing the HA binding domain, amino acids … (UniProt Q00547 706-766))
T1 chain: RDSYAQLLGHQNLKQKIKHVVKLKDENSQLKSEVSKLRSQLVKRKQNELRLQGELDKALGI

T2: Recombinant protein RHAMM-CT (truncated RHAMM, carboxy terminus containing the HA binding domain, amino acids … (Mus musculus (Mouse), UniProt Q00547 706-766))
T2 construct: Expressed in E. coli BL21 from pPAL7-RHAMM as eXact-tagged protein and purified on Profinity eXact resin (fluoride elution); M.W. 7.1 kDa, pI 10.1; also called recombinant RHAMM
T2 sequence: T1 chain

B1: peptide 12a (SEQ ID NO: 12), unmodified tubulin-derived peptide (peptide)
peptide: EAFEDEEEEIDG-NH2
notes: Synthetic 12-mer made on Rink amide MBHA resin
B2: peptide 11a (SEQ ID NO: 11), unmodified tubulin-derived peptide, beta-IV CTT (peptide)
peptide: GEFEEEAEEEVA-NH2
notes: as for B1
B3: peptide 3a (SEQ ID NO: 3), unmodified tubulin-derived peptide, alpha-IIIc CTT (peptide)
peptide: SVEAEAEEGEEY-NH2
notes: as for B1
B4: peptide 1a (SEQ ID NO: 1), unmodified tubulin-derived peptide, alpha-Ia CTT (peptide)
peptide: VEGEGEEEGEEY-NH2
notes: Synthetic 12-mer made on Rink amide MBHA resin; also called ala-CTT
B5: peptide 9a (SEQ ID NO: 9), unmodified tubulin-derived peptide, beta-Ia CTT (peptide)
peptide: EEDFGEEAEEEA-NH2
notes: as for B1

What was measured:
[1] = molecular target: T1, Recombinant protein RHAMM-CT (truncated …); experiment: SPR
[2] = molecular target: T2, Recombinant protein RHAMM-CT (truncated …); experiment: SPR-based screening (FIG. 3B legend)
Description: ProteON XPR36 system was used for the selection and ranking of different tubulin derived peptides against RHAMM. For immobilization of RHAMM, the ProteON GLC sensor chip surfaces were activated by amine coupling using 100 mM EDAC and 24 mM sulfo-NHS. RHAMM (30 μg/mL in sodium bicarbonate buffer, pH 9.7) was injected at a flow a rate of 30 μl/min. A buffer sample was injected on a different sensor plate for use as a reference. Ethanolamine HCl (1M, pH 8.5) was then injected to deactivate any remaining surface groups. Peptides (10 μM in PBS-T, 2% DMSO) were injected to a RHAMM functionalized surface at 50 μL/min for 3 minutes followed by a 10 minute dissociation (i.e. injection of PBS-T buffer) period. The surfaces were regenerated using two injections of 30 μL of 1M NaCl prior to the injection of the next peptide. In all experiments, reference subtraction was performed using data obtained from reference plate (No RHAMM) and RHAMM functionalized plate.
After immobilization of RHAMM on the SPR sensor chip, injection of a series of tubulin derived peptides was carried out. Association of the peptides with RHAMM proceeded for 3 minutes and the dissociation in analyte free buffer was carried out for 10 minutes. […] For each peptide injection, control sensograms (no immobilized RHAMM and buffer injection) were subtracted from the test sensograms, and the chip surface was regenerated prior to the next peptide injection in order to remove any remaining bound peptides.

[3] = molecular target: T1, Recombinant protein RHAMM-CT (truncated …); experiment: SPR; average
[4] = molecular target: T1, Recombinant protein RHAMM-CT (truncated …); experiment: SPR; RHAMM 500 nM
[5] = molecular target: T1, Recombinant protein RHAMM-CT (truncated …); experiment: SPR; RHAMM 750 nM
[6] = molecular target: T1, Recombinant protein RHAMM-CT (truncated …); experiment: SPR; RHAMM 1000 nM
[7] = molecular target: T1, Recombinant protein RHAMM-CT (truncated …); experiment: SPR

Binder | Kd [1] | binding result [2] | Kd [7] | also measured
B1 | 211 nM | binds | – | Kd [3]: 211 nM; Kd [4]: 217 nM; Kd [5]: 215 nM; Kd [6]: 201 nM
GEFSEAREDMAA [7] | – | – | 180 nM | –
B2 | 130 nM | binds | – | Kd [3]: 130 nM; Kd [4]: 126 nM; Kd [5]: 145 nM; Kd [6]: 120 nM
DSFEEENEGEEF [5] | – | – | < 1000 nM | –
B3 | – | binds | 331 nM | Kd [3]: 331 nM; Kd [4]: 310 nM; Kd [5]: 325 nM; Kd [6]: 358 nM
IDSYEDEDEGEE [SEQ ID NO 4 (tubulin-derived peptide containing the DEXEEZ motif)] | – | – | < 1000 nM | –
B4 | – | binds | 24 nM | –
B5 | – | binds | 32 nM | –
GEFEEEEGEDEA [SEQ ID NO 10 (tubulin-derived peptide containing the EEXEDZ motif)] | < 1000 nM | – | – | –
VQQLIDEYHAAT [16] | < 1000 nM | – | – | –
SNMNDLVSEYQQ [13] | < 1000 nM | – | – | –
DNPDEMDTSREI [17] | < 1000 nM | – | – | –
DSADGEDEGEEY [SEQ ID NO 2 (tubulin-derived peptide containing the DEXEEZ motif)] | – | – | < 1000 nM | –
FVHWYVGEGMEE [8] | – | – | 176 nM | –
LEKDYEEVGVDS [6] | – | – | 330 nM | –
RPDYISWGTQEQ [15] | < 1000 nM | – | – | –
